T1: human TREM-like transcript-1 (TLT-1) (human, UniProt Q86YW5 16-311)
T1 construct: whole, on cells; bands of 35 and 25 kDa; also called hTLT-1; TLT-1 on (HEK)293T transfected cells
T1 sequence (looked up): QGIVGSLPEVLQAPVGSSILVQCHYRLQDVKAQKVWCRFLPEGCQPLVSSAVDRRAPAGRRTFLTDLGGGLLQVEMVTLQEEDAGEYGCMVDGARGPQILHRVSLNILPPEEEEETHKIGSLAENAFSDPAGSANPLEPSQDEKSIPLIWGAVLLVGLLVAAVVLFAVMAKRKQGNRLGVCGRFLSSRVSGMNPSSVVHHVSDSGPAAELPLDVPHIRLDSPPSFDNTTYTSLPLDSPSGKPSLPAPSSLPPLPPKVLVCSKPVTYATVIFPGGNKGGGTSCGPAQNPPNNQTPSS

B1: scFv A7 (scFv)
scFv: MAEVQLLESGGGLVQPGGSLRLSCAASGFTFSSYAMSWVRQAPGKGLEWVSAIGSYGSATAYADSVKGRFTISRDNSKNTLYLQMNSLRAEDTAVYYCAKNGYDFDYWGQGTLVTVSSGGGGSGGGGSGGGGSTDIQMTQSPSSLSASVGDRVTITCRASQSISSYLNWYQQKPGKAPKLLIYNASGLQSGVPSRFSGSGSGTDFTLTISSLQPEDFATYYCQQSAANPSTFGQGTKVEIKRAAAHHHHHHGAAEQKLISEEDLNGAA
notes: Human scFv from the Tomlinson I phage library; Soluble form purified on Protein L; also called GenBank DQ375450
B2: scFv B8 (scFv)
scFv: MAEVQLLESGGGLVQPGGSLRLSCAASGFTFSSYAMSWVRQAPGKGLEWVSNITASGYATAYADSVKGRFTISRDNSKNTLYLQMNSLRAEDTAVYYCAKTTATFDYWGQGTLVTVSSGGGGSGGGGSGGGGSTDIQMTQSPSSLSASVGDRVTITCRASQSISSYLNWYQQKPGKAPKLLIYDASNLQSGVPSRFSGSGSGTDFTLTISSLQPEDFATYYCQQDTASPSTFGQGTKVEIKRAAAHHHHHHGAAEQKLISEEDLNGAA
notes: Human scFv from the Tomlinson I phage library; Soluble form purified on Protein L; also called GenBank DQ375452
B3: scFv C10 (scFv)
scFv: MAEVQLLESGGGLVQPGGSLRLSCAASGFTFSSYAMSWVRQAPGKGLEWVSGISSTGGATTYADSVKGRFTISRDNSKNTLYLQMNSLRAEDTAVYYCAKSTYDFDYWGQGTLVTVSSGGGGSGGGGSGGGGSTDIQMTQSPSSLSASVGDRVTITCRASQSISSYLNWYQQKPGKAPKLLIYGASTLQSGVPSRFSGSGSGTDFTLTISSLQPEDFATYYCQQNADAPTTFGQGTKVEIKRAAAHHHHHHGAAEQKLISEEDLNGAA
notes: Human scFv from the Tomlinson I phage library; Soluble form made in E. coli HB2151 and purified on Protein L (28 kDa); also called clone C10
B4: scFv A1 (scFv)
scFv: MAEVQLLESGGGLVQPGGSLRLSCAASGFTFSSYAMSWVRQAPGKGLEWVSGIGTTGYATAYADSVKGRFTISRDNSKNTLYLQMNSLRAEDTAVYYCAKGNSGFDYWGQGTLVTVSSGGGGSGGGGSGGGGSTDIQMTQSPSSLSASVGDRVTITCRASQSISSYLNWYQQKPGKAPKLLIYTASTLQSGVPSRFSGSGSGTDFTLTISSLQPEDFATYYCQQSSTDPGTFGQGTKVEIKRAAAHHHHHHGAAEQKLISEEDLNGAA
notes: Human scFv from the Tomlinson I phage library; Soluble form purified on Protein L; also called GenBank DQ375449
B5: scFv D1 (scFv)
scFv: MAEVQLLESGGGLVQPGGSLRLSCAASGFTFSSYAMSWVRQAPGKGLEWVSAIGTTGYATAYADSVKGRFTISRDNSKNTLYLQMNSLRAEDTAVYYCAKANSYFDYWGQGTLVTVSSGGGGSGGGGSGGGGSTDIQMTQSPSSLSASVGDRVTITCRASQSISSYLNWYQQKPGKAPKLLIYSASTLQSGVPSRFSGSGSGTDFTLTISSLQPEDFATYYCQQDSTSPDTFGQGTKVEIKRAAAHHHHHHGAAEQKLISEEDLNGAA
notes: Human scFv from the Tomlinson I phage library; Soluble form purified on Protein L; also called GenBank DQ375454
B6: scFv A8 (scFv)
scFv: MAEVQLLESGGGLVQPGGSLRLSCAASGFTFSSYAMSWVRQAPGKGLEWVSGIGTTGYSTAYADSVKGRFTISRDNSKNTLYLQMNSLRAEDTAVYYCAKTAYTFDYWGQGTLVTVSSGGGGSGGGGSGGGGSTDIQMTQSPSSLSASVGDRVTITCRASQSISSYLNWYQQKPGKAPKLLIYSASTLQSGVPSRFSGSGSGTDFTLTISSLQPEDFATYYCQQNSTYPATFGQGTKVEIKRAAAHHHHHHGAAEQKLISEEDLNGAA
notes: Human scFv from the Tomlinson I phage library; Soluble form purified on Protein L; also called GenBank DQ375451

Key:
BSA = BSA (UniProt P02769 25-607); test: phage ELISA, immobilized antigen (data not shown)
Sequence of BSA (P02769 25-607 limits assumed): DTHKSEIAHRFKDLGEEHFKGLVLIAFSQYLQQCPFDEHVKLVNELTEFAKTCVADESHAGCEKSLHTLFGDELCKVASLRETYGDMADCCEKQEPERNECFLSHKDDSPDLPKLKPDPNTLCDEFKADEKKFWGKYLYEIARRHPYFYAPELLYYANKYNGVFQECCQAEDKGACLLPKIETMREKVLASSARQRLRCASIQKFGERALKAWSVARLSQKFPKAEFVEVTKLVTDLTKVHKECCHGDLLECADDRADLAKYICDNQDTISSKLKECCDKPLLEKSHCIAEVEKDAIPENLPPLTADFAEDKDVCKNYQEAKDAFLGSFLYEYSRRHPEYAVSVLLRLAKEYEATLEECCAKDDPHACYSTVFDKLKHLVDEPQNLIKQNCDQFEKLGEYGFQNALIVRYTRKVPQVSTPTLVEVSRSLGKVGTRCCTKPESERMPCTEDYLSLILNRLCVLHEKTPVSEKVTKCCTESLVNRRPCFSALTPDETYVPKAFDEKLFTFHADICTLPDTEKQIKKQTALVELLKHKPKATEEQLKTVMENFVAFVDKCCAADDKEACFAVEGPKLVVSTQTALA

[1] = molecular target: T1, human TREM-like transcript-1 (TLT-1); test: flow cytometry, purified scFv on TLT-1 transfected cells
Method: For flow cytometric analysis with TLT-1-transfected cells, phage-containing supernatants were prepared from individual colonies as previously described (14). (HEK)293T-TLT-1 transfected cells (2×10⁵ cells) were washed with PBS/1% BSA and incubated with phages (2×10¹⁰ TU) or purified scFv (1 μg/ml). After 1 hr of incubation at 4° C., cells were washed twice with PBS/1% BSA. Phage binding was detected by incubation with mouse anti-M13 monoclonal antibody (Amersham Bioscience, Piscataway, N.J.), followed by incubation with phycoerithrin (PE)-conjugated anti-mouse antibody (Jackson Immunoresearch, West Grove, Pa.). To analyze scFv binding to human platelets, platelets were incubated with 1 μg of purified scFv for 1 hour at 4° C. and washed three times with PBS containing 0.5% sodium azide and 0.5% BSA. ScFv binding was detected using a FITC-conjugated anti-c-myc antibody (Sigma, St Louis, Mo.). TLT-1 expression was detected with a commercial anti-human TLT-1 pAb (R&D Systems, MN) as previously described (10).

Binder	binding result (BSA)	binding result [1]
B1	no binding	binds
B2	no binding	–
B3	no binding	–
B4	no binding	binds
B5	no binding	binds
B6	no binding	binds
